Measurements as given in patent publication US20200024335A1 (BERG, published 2020).

Assays:
[1] = target: E. coli-expressed partial FLNC (aa 1438-2128) (Homo sapiens (Human)) (UniProt Q14315); assay: ELISA, coated protein, negative control
[2] = target: T1, HEK293-expressed full length FLNB (human, UniProt O75369 2-2601); assay: ELISA, coated protein, negative control
T1 construct: prepared by GenScript; also called full length human FLN-B protein

[3] = target: HEK293-expressed full length FLNA (Homo sapiens (Human)) (UniProt P21333); assay: ELISA, coated protein, negative control
[4] = target: E. coli-expressed partial FLNB (aa1416-2089), Filamin B immunogen (human) (UniProt O75369); assay: ELISA, coated protein, negative control
[5] = target: E. coli-expressed partial FLNA (aa1443-2131) (Homo sapiens (Human)) (UniProt P21333); assay: ELISA, coated protein, negative control
[6] = target: T1, HEK293-expressed full length FLNB; assay: BLI (Octet), antibody on anti-mIgG Fc capture sensor, FLNB 25 nM
[7] = target: T2, HEK293-expressed full length FLNA (Homo sapiens (Human), UniProt P21333 2-2647); assay: ELISA, coated protein, hybridoma supernatant
T2 construct: also called Full length Filamin A
Description: (§1) Filamin A (FLNA) and Filamin C (FLNC) are the other two members in the Filamin family; they share 69% and 61% identity to FLNB, respectively. The clones were screened for negative with E. coli-expressed partial FLNA (aa1443-2131) and E. coli-expressed FLNC (aa 1438-2128) which cover the same region as FLN-B (aa1416-2089), and HEK293-expressed full length FLNA. 10% human serum was further tested for any unexpected cross-reactivity. The Partial FLNA (aa 1443-2131) protein sequence is shown in SEQ ID NO: 32. Partial FLNC (aa 1438-2128) protein sequence is shown in SEQ ID NO: 33. Full length FLNA protein sequence is shown in SEQ ID NO: 34.
(§2) Next, the proteins were coated and tested for supernatants from clones 3F10 and 5H7 by ELISA. […] FLNB proteins were tested for specificity, while homologous proteins FLNA and FLNC from the same family were tested for any cross-reactivity. 10% pooled normal human serum was also included for any unexpected non-specific binding.

[8] = target: T3, E. coli-expressed partial FLNA (aa1443-2131) (Homo sapiens (Human), UniProt P21333 1443-2131); assay: ELISA, coated protein, hybridoma supernatant
T3 construct: Covers the same region as FLNB aa1416-2089; also called Partial Filamin A (aa 1443-2131)
T3 sequence: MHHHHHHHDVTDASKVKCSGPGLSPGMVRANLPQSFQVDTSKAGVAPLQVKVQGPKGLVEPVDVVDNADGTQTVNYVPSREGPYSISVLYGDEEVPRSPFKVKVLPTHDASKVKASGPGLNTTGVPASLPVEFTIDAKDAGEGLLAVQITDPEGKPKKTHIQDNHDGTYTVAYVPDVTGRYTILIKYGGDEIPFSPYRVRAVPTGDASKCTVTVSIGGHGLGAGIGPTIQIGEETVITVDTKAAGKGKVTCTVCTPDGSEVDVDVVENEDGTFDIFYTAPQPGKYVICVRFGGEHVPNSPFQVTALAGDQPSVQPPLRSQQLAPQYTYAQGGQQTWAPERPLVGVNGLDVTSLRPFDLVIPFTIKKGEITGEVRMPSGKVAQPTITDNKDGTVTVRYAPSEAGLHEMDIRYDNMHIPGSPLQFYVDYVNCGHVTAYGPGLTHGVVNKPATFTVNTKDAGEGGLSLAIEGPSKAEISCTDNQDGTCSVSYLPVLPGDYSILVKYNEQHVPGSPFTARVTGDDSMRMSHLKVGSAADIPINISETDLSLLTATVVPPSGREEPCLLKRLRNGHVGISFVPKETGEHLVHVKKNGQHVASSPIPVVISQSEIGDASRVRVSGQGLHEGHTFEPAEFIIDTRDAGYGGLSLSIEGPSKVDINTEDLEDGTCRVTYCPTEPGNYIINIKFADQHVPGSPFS
Description: as §1, §2

[9] = target: T4, E. coli-expressed partial FLNB (aa1416-2089), Filamin B immunogen (human, UniProt O75369 1416-2089); assay: ELISA, coated protein, hybridoma supernatant
T4 construct: covers filamin repeats 13-19; also called partial FLNB protein
T4 sequence: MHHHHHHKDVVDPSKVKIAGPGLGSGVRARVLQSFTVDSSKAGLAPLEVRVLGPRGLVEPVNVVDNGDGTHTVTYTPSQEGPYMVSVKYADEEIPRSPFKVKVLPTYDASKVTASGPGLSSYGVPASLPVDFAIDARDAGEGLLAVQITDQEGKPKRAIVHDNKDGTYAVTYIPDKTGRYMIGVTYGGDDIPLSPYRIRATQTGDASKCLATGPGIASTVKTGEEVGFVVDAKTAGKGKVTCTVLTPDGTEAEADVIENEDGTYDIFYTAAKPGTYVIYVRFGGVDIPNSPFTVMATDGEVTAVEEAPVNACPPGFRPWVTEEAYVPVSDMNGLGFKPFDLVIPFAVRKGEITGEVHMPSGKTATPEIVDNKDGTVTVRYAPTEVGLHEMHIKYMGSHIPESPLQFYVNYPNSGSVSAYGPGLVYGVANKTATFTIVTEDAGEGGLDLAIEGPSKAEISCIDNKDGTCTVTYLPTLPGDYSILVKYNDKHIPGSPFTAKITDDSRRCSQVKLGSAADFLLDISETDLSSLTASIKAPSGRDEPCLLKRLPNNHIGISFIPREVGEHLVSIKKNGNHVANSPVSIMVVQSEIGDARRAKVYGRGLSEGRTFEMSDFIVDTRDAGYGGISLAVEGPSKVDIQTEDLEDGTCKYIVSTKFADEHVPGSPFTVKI
Description: as §1, §2

[10] = target: T1, HEK293-expressed full length FLNB; assay: ELISA, coated protein, hybridoma supernatant
Description: as §1, §2

[11] = target: T5, E. coli-expressed partial FLNC (aa 1438-2128) (Homo sapiens (Human), UniProt Q14315 1438-2128); assay: ELISA, coated protein, hybridoma supernatant
T5 construct: Covers the same region as FLNB aa1416-2089; also called Partial Filamin C (aa 1438-2128)
T5 sequence: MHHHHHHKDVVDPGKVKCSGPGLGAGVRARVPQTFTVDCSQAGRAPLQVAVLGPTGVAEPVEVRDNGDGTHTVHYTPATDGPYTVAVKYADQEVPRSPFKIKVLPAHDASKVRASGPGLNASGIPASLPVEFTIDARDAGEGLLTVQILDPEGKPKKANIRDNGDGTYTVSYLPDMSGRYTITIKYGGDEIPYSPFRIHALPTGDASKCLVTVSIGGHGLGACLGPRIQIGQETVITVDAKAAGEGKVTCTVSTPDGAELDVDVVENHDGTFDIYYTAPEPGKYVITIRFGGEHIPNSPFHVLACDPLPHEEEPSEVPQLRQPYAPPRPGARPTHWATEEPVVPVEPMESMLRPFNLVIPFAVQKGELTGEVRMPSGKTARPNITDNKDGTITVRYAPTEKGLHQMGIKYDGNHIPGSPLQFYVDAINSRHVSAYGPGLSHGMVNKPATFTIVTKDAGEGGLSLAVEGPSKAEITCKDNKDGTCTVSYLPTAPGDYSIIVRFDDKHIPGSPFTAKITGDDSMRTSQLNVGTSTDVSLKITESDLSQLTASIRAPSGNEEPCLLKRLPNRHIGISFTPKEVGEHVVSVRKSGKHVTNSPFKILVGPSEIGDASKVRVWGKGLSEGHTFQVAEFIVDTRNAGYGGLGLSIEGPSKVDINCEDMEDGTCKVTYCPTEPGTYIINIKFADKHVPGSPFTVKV
Description: as §1, §2

[12] = target: 10% pooled normal human serum; assay: ELISA, coated 10% serum, hybridoma supernatant
[13] = target: HEK293-expressed full length FLNA (Homo sapiens (Human)) (UniProt P21333); assay: ELISA, coated protein, hybridoma supernatant

T1 sequence (O75369 other isoform, or with tags, fused parts or gaps): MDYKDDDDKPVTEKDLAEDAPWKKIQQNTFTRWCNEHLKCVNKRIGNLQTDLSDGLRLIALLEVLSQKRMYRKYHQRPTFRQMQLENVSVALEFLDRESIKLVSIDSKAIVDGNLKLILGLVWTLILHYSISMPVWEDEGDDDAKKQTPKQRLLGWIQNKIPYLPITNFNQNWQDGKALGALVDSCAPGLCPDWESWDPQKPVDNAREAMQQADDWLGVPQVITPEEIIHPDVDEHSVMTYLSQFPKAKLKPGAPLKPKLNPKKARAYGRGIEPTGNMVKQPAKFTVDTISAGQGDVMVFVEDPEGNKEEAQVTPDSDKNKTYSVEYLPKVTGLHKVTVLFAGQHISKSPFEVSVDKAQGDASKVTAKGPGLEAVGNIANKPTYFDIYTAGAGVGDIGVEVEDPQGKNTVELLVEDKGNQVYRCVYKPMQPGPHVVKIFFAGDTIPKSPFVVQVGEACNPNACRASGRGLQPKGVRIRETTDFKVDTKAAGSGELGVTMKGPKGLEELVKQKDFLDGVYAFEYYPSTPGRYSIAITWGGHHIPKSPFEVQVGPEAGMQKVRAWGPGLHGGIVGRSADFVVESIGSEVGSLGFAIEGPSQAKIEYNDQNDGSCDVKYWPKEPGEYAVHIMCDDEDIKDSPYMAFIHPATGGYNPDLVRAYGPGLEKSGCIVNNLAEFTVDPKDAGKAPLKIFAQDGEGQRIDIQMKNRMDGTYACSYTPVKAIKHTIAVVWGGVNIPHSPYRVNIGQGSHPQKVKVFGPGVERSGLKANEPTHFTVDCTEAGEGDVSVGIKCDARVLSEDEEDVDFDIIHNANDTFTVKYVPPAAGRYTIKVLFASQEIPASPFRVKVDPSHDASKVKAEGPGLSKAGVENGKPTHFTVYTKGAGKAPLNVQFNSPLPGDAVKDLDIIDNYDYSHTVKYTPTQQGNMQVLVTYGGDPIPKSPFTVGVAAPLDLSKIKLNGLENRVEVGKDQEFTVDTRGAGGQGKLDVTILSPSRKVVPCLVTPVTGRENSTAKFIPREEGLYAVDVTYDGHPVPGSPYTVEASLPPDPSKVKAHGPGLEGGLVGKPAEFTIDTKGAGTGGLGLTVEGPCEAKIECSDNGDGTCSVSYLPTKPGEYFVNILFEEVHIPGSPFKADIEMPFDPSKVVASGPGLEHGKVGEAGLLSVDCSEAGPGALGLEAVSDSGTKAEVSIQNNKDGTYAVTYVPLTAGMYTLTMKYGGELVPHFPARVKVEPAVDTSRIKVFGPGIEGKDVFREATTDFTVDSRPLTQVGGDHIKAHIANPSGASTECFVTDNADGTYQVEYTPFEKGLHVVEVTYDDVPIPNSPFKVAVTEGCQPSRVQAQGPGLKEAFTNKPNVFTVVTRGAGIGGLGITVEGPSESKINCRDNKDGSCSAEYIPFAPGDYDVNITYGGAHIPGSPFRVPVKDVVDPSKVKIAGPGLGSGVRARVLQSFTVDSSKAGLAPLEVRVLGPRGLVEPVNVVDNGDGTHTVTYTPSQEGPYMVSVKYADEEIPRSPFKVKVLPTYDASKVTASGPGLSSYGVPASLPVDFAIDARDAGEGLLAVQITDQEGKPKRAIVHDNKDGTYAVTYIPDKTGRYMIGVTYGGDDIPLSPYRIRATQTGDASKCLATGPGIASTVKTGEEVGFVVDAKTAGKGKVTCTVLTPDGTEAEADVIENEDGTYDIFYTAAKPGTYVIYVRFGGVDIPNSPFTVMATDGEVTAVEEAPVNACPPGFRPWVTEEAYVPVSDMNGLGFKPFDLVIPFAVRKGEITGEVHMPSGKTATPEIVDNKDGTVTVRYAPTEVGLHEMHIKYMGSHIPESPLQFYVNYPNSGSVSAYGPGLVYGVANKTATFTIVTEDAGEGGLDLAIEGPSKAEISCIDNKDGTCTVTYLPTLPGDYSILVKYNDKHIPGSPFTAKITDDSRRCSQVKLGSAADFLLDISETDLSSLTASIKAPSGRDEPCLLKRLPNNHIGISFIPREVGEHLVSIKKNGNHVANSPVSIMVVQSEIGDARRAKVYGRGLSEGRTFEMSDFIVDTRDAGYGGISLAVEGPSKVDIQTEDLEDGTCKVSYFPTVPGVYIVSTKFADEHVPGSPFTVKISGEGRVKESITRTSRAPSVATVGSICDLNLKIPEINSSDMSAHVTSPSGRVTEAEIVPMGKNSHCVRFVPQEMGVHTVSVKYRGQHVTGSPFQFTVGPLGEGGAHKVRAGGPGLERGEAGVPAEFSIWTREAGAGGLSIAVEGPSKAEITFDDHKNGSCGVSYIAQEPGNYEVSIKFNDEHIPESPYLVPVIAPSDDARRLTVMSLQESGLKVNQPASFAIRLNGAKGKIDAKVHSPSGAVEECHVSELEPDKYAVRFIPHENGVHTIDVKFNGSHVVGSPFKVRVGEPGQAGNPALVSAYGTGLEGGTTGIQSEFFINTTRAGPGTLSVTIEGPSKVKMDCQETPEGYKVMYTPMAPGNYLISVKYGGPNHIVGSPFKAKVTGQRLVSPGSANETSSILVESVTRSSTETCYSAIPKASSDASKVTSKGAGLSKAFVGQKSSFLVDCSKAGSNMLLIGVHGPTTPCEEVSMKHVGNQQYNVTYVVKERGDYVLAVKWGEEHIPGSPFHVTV

Work on “Neg ctl (negative control of the specificity ELISA)” yielded an ELISA test result [1] of 0.05, an ELISA test result [2] of 0.06 and an ELISA test result [3] of 0.073. The ELISA test result [4] was 0.04 and the ELISA test result [5] was 0.05.

B1: 3F10 murine monoclonal anti-FLNB antibody (antibody, V domains shown)
VH: QVQLQQPGAELVKPGASVKLSCKASGYTFTSYWMHWVKQRPGQGLEWIGMIHPNSGSTNYNEKFKSKATLTVDKSSSTAYMQLSSLTSEDSAVYYCAIYGSGPWFAYWGQGTLVTVSA
VL: DIQMTQSPASLSASVGETVTITCRASENIYSSLAWYQQKQGKSPQLLVYYAKTLAEGVPSRFSGSGSGTQFSLKINRLQPEDFGSYYCQHHYGSPLTFGAGTKLELK
notes: Tested as hybridoma supernatant or purified antibody; also called clone 3F10; anti-FLNB antibody (3F10)
Molecule B1 has a Kd [6] of less than 1 pM, a koff [6] of less than 1e-07 s⁻¹ and a kon [6] of 270000 M⁻¹ s⁻¹. For the same molecule, the ELISA test result [7] was 0.076, the binding result [7] was “no binding” and the ELISA test result [8] was 0.05. For the same molecule, the binding result [8] was “no binding”, the ELISA test result [9] was 3.87 and the ELISA test result [10] was 2.36. The ELISA test result [11] was 0.06, the binding result [11] was “no binding” and the ELISA test result [12] was 0.048.

B2: 5H7 murine monoclonal anti-FLNB antibody (antibody, IgG2b, V domains shown)
VH: DVQLQESGPGLVKPSQSLSLTCSVTGYSITSGYYWNWIRQFPGNKLEWMGYISYDGSNNYNPSLKNRISITRDTSKNQFFLRLNSVTTEDTATYYCARETWASFDYWGQGTTLTVSS
VL: DIVMTQSQKFMSTTVGDRVGITCKASQNVGIAVAWYQQKPGQSPRLLIYSASYRYTGVPDRFSGSGSGTDFTLTINNMQSEDLADYFCQQYSSYPLTFGSGTKLEIK
notes: also called clone 5H7; biotin-linked monoclonal antibody specific for FLNB (5H7)
Molecule B2 has an ELISA test result [13] of 0.191, a Kd [6] of less than 1 pM and a koff [6] of less than 1e-07 s⁻¹. For the same molecule, the kon [6] was 250000 M⁻¹ s⁻¹, the ELISA test result [8] was 0.05 and the binding result [8] was “no binding”. The ELISA test result [9] was 3.48, the ELISA test result [10] was 3.49 and the ELISA test result [11] was 0.05. The binding result [11] was “no binding” and the ELISA test result [12] was 0.123.
